This note sets out measurements from paper PMC5372246, “Co-production of hydrogen and ethanol from glucose in Escherichia coli by activation of pentose-phosphate pathway through deletion of phosphoglucose isomerase (pgi) and overexpression of glucose-6-phosphate dehydrogenase (zwf) and 6-phosphogluconate dehydrogenase (gnd)” (Biotechnology for Biofuels, 2017).

A word on the Km: it is the substrate concentration at which the rate is half of its maximum.

The data set relates to T1, NC(=O)c1ccc[n+]([C@@H]2O[C@H](COP(=O)(O)OP(=O)(O)OC[C@H]3O[C@@H](n4cnc5c(N)ncnc54)[C@H](OP(=O)(O)O)[C@@H]3O)[C@@H](O)[C@H]2O)c1.
T1 construct: full-length, C-terminal His-tag, Ni-NTA purified from E. coli, 55 kDa on SDS-PAGE
Briefly: purified protein. The class given is biochemical, Escherichia coli. Particulars: co-substrate glucose-6-phosphate, general assay: Tris-HCl pH 7.5, 1 mM MgCl2, 30 °C.

Take “Zwf (ZE), glucose-6-phosphate dehydrogenase (Escherichia coli K-12)”: the Michaelis constant (Km) is recorded as 15 µM.
